Results taken from patent US20230050440A1.
Numbering of substitutions follows the chain as printed.

B1: Clone 16D (antibody, V domains shown)
VH: QVQLVQSGAEVKKPGSSVKVSCKASGGTFSDYPISWVRQAPGQGLEWMGGIIPIVGGANYAQKFQGRVTITADESTSTAYMELSSLRSEDTAVYYCTRQSTWHKLFGTDVWGQGTTVTVSS
VL: DIQMTQSPSSVSASVGDRVTITCRASQGISSWLAWYQQKPGKAPKLLIYAASSLQSGVPSRFSGSGSGTDFTLTISSLQPEDFATYYCQQGDSLPPTFGGGTKVEIK
B2: Clone 16C (antibody, V domains shown)
VH: B1 VH with S30R, D31E, P33A, I52H, V55F, G57T, N59R, F106Y
VL: B1 VL
B3: Clone 16E (antibody, V domains shown)
VH: B1 VH with T97A, L105V, F106Y
VL: B1 VL
B4: Clone 25 (antibody, V domains shown)
VH: QVQLVQSGAEVKKPGASVKVSCKASGYTFTSYAISWVRQAPGQGLEWMGWISAYNGNTNYAQKLQGRVTMTTDTSTSTAYMELRSLRSDDTAVYYCARDLSSFWSGDVLGAFDIWGQGTMVTVSS
VL: DIQMTQSPSSLSASVGDRVTITCRASQSISSYLNWYQQKPGKAPKLLIYAASSLQSGVPSRFSGSGSGTDFTLTISSLQPEDFATYYCQQSVPPRTFGGGTKVEIK
B5: Clone 25C (antibody, V domains shown)
VH: B4 VH with A33P, S35G, A53S, D99G, L100A
VL: B4 VL
B6: Clone 25A (antibody, V domains shown)
VH: B4 VH with N59K
VL: B4 VL
B7: Clone 25D (antibody, V domains shown)
VH: B4 VH with A33P, S35G, A53S, S101K
VL: B4 VL
B8: Clone 25E (antibody, V domains shown)
VH: B4 VH with S35A, D99S, L100G
VL: B4 VL
B9: Clone 25B (antibody, V domains shown)
VH: B4 VH with A33P, S35G, A53S
VL: B4 VL
B10: Clone 18 (antibody, V domains shown)
VH: QVQLVQSGAEVKKPGASVKVSCKASGYTFTSYYMSWVRQAPGQGLEWMGIINPSGGSTSYAQKFQGRVTMTRDTSTSTVYMELSSLRSEDTAVYYCARVRYGYADGMDVWGQGTTVTVSS
VL: B1 VL with V11L, G28S, W32Y, A34N, A50G, G91V, D92Y, S93H, P96F
B11: Clone 22 (antibody, V domains shown)
VH: QVQLQESGPGLVKPSETLSLTCAVSGYSISSGYYWAWIRQPPGKGLEWIGSIYHSGSTYYNPSLKSRVTISVDTSKNQFSLKLSSVTAADTAVYYCARQGYYYGSSGSVDFDLWGRGTLVTVSS
VL: DIQMTQSPSSVSASVGDRVTITCRASQGISSWLAWYQQKPGKAPKLLIYAASNLQSGVPSRFSGSGSGTDFTLTISSLQPEDFATYYCQQANSLPPWTFGGGTKVEIK

The binders below were run against dimeric mouse TIGIT-Fc (R&D Systems, 7267-TG) (mouse) (UniProt P86176) (assay: BLI (ForteBio), IgG on sensor, avid).
Sequence of dimeric mouse TIGIT-Fc (R&D Systems, 7267-TG) (mouse) (P86176 other isoform, or with tags, fused parts or gaps limits assumed, form in doubt): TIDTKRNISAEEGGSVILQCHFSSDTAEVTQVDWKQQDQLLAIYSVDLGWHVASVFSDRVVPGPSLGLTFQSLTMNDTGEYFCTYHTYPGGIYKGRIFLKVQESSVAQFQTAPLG

Row | Kd [nM] | Binder
1 | 2.63 | B1
2 | 0.801 | B2
3 | 3.7 | B3
4 | 0.967 | B4
5 | 0.494 | B5
6 | 0.823 | B6
7 | 0.58 | B7
8 | 0.566 | B8
9 | 0.719 | B9

What follows are binders tested against mouse TIGIT expressed on cells (mouse) (UniProt P86176) (assay: flow cytometry, titration on activated mouse splenic T cells).
Sequence of mouse TIGIT expressed on cells (mouse) (P86176 other isoform, or with tags, fused parts or gaps limits assumed, form in doubt): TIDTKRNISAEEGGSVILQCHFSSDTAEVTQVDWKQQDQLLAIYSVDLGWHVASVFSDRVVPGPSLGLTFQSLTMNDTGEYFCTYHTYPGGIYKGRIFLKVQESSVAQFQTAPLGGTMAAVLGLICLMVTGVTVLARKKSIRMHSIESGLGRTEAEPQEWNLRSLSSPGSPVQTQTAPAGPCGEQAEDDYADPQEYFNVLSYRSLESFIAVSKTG

Row | EC50 [µg/mL] | Binder
10 | 2.28 | B4

What follows are binders tested against mouse TIGIT expressed on cells (mouse) (UniProt P86176) (assay: flow cytometry titration, HEK 293 cells expressing mouse TIGIT).

Row | EC50 [µg/mL] | Binder
11 | 0.24 | B4

The binders below were run against dimeric mouse TIGIT-Fc (R&D Systems, 7267-TG) (mouse) (UniProt P86176) (assay: BLI (ForteBio Octet RED384), IgG on AHQ sensor, 100 nM antigen, 1:1 model).

Row | Kd [nM] | Binder
12 | 8.82 | B10
13 | 10.5 | B11
14 | 1.1 | B4

Each binder was assayed against mouse TIGIT expressed on cells (mouse) (UniProt P86176) (assay: flow cytometry on HEK 293 cells expressing the target, MFI over parental HEK 293).

Row | FOB (Fold Over Background) [fold] | Binder
15 | 63 | B1
16 | 99 | B2
17 | 56 | B3
18 | 117 | B4
19 | 124 | B5
20 | 119 | B6
21 | 137 | B7
22 | 116 | B8
23 | 129 | B9
